Blank lines part the entries; values can stand above or below the molecule they belong to. No end group written: not given here.
Experiments:
[1] = target: T1, microtubule nucleation from purified centrosomes (bovine brain tubulin) (Bos taurus, UniProt P81947+Q6B856); experiment: In vitro centrosome-dependent microtubule nucleation assay; format: biochemical; conditions: for Effect of synthetic peptide on centrosome-dependent microtubule nucleation (in words): 20 μM or 40 μM peptide; for Inhibition of microtubule nucleation/assembly from purified centrosomes (in words): in vitro
T1 construct: containing 125 μg bovine brain tubulin (Cytoskeleton, Denver, Colo.); purchased Cytoskeleton, Denver, Colo; host or cells: bovine brain (tissue-purified)
T1 sequence (P81947 whole entry): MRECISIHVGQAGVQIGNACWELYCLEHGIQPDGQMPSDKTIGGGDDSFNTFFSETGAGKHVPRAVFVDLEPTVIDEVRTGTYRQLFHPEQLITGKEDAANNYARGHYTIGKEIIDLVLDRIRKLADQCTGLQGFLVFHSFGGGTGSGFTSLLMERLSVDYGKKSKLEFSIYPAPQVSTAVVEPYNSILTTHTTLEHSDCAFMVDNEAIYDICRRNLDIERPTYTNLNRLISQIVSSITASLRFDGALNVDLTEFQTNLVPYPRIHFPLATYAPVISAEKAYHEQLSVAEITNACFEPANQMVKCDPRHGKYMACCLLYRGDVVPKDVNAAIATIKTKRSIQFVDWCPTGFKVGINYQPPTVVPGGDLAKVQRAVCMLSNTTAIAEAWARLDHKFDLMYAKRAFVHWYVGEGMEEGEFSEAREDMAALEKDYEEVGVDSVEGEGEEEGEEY
T1 sequence (Q6B856 whole entry): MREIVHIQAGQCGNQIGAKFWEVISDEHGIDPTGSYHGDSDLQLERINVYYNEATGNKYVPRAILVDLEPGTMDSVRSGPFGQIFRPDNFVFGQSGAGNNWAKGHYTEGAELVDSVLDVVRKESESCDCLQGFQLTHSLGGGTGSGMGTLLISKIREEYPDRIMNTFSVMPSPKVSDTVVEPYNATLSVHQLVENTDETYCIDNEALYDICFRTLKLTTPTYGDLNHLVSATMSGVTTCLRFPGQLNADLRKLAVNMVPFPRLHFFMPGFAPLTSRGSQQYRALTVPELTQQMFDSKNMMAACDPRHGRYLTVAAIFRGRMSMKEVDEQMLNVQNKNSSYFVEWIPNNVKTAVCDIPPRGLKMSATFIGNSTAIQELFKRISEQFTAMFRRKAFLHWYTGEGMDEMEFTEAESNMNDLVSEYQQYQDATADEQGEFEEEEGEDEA
Procedure: In vitro Centrosome-Dependant Microtubule Nucleation Assay
Isolation of centrosomes and microtubule nucleation tests were performed as described (Hung et al., 2000). To investigate the effect of different GST-truncated CPAP fusion proteins on microtubule nucleation, purified centrosomes (4 μl per reaction) were pre-incubated with the various truncated GST-CPAP fusion proteins or FPLC purified synthetic peptides for 10 min at 4° C. The reaction mixtures were then incubated in 65 μl RG1 buffer (80 mM PIPES, pH 6.8, 1 mM EGTA, 1 mM MgCl2, and 1 mM GTP) containing 125 μg bovine brain tubulin (Cytoskeleton, Denver, Colo.) for 4 min at 37° C.
Microtubules present in the reaction mixtures were fixed in 200 μl 1% glutaraldehyde in RG1 buffer, sedimented onto acid-treated coverslips, and subjected to immunofluoresence analysis using anti-α-tubulin monoclonal antibodies N356 (Amersham, Piscataway, N.J.) or FITC-conjugated anti-α-tubulin monoclonal antibodies (DM1A-FITC; Sigma, Saint Louis, Mo.). Truncated GST-CPAP proteins were detected using an anti-GST polyclonal antibody (Molecular Probes, Cincinnati, Ohio). The extent of microtubule assembly in each reaction was determined microscopically by comparing the extent of microtubule formation on each coverslip. Decreased microtubule formation in reactions comprising polypeptides derived from CPAP indicated the ability of such polypeptides to inhibit centrosome-dependent microtubule assembly.

[2] = tested on: HeLa cells; experiment: Cell-based assay for CPAP activity: microtubule reassembly in cold-treated transfected HeLa cells; design: species or system human; conditions: for Inhibition of microtubule reassembly in cold-treated mitotic cells (in words): transiently transfected HeLa cells
Procedure: Cell Culture and Transfection
HeLa cells were maintained in DMEM supplemented with 10% fetal bovine serum. cDNA clones encoding different portions of CPAP were subcloned, in an appropriate reading frame, into the CMV promoter-driven EGFP-C1 expression vector (Clontech, Palo Alto, Calif.). Transient transfections were performed using Lipofectamine 2000 (Invitrogen, Carlsbad, Calif.) according to the manufacturer's instructions.
Cold Treatment, Immunofluorescence and Confocal Microscopy
HeLa cells were grown on coverslips for at least 24 hr. Cold treatment was performed by incubating the cells at 4° C. for 1 hr, then replacing the cold medium with medium warmed to 30° C. and incubating the cells for 2 min at 30° C. The cells were then fixed with 1% formaldehyde for 30 min at room temperature.
The fixed cells were incubated in the presence of anti-α-tubulin monoclonal antibodies (N356, Amersham, Piscataway, N.J.) and anti-γ-tubulin polyclonal antibodies (Sigma, Saint Louis, Mo.). Bound anti-α-tubulin monoclonal antibodies (N356) were detected with Alexa 568, a Texas Red-conjugated goat anti-mouse IgG, or Alexa 647, a far-red fluorophore-conjugated goat anti-mouse IgG. Bound anti-γ-tubulin polyclonal antibodies were detected with Alexa 568 (Molecular Probes Inc.). The resulting […] signals were detected using a laser scanning confocal system (MRC 1000, Bio-Rad Laboratories, Hercules, Calif.).
The effect of various polypeptides derived from CPAP was determined by evaluating the amounts of mitotic spindle formation in the transfected cells. Decreased mitotic spindle formation indicated the presence of an activity that inhibited microtubule formation or destabilized microtubules.

Molecule: peptide H2: synthetic peptide, amino acid residues 327-362 of CPAP (SEQ ID NO:1) (IKAAIGERKQTFEDYLEEQIQLEEQELKQKQLKEAE; listed as Homo sapiens)
- Effect of synthetic peptide on centrosome-dependent microtubule nucleation (in words) [1]: No effect

Molecule: GFP-PN2-1: GFP-tagged CPAP residues 132-190 (EFKEGAYKDPLFKKLEQLKEVQQKKQEQLKRQQLEQLQRLMEEQEKLLTMVSGQCTLPG; also: GFP tag, terminus not given here; UniProt Q9HC77 132-190, looked up, fragment)
- Inhibition of microtubule reassembly in cold-treated mitotic cells (in words) [2]: no significant inhibition

Molecule: peptide C2: synthetic peptide, amino acid residues 393-423 of CPAP (SEQ ID NO:1) (QKGKESKLVTNQSTSEDQPLFKMDRQQLQRK; listed as Homo sapiens)
- Effect of synthetic peptide on centrosome-dependent microtubule nucleation (in words) [1]: No effect

B1: GST-PN2: GST fusion polypeptide corresponding to amino acid residues 132-422 of CPAP (protein, UniProt Q9HC77 132-422, looked up, fragment)
chain: EFKEGAYKDPLFKKLEQLKEVQQKKQEQLKRQQLEQLQRLMEEQEKLLTMVSGQCTLPGLSLLPDDQSQKHRSPGNTTTGERATCCFPSYVYPDPTQEETYPSNILSHEQSNFCRTAHGDFVLTSKRASPNLFSEAQYQEAPVEKNNLKEENRNHPTGESILCWEKVTEQIQEANDKNLQKHDDSSEVANIEERPIKAAIGERKQTFEDYLEEQIQLEEQELKQKQLKEAEGPLPIKAKPKQPFLKRGEGLARFTNAKSKFQKGKESKLVTNQSTSEDQPLFKMDRQQLQR
modifications: GST tag
notes: GST fusion polypeptide corresponding to amino acid residues 132-422 of CPAP
- Inhibition of microtubule nucleation/assembly from purified centrosomes (in words) [1]: inhibited

B2: PN2-3: PN2-3 polypeptide with wild-type CPAP sequence, residues 311-422 of SEQ ID NO:1, expressed using pET vectors (protein, listed as Homo sapiens)
chain: QKHDDSSEVANIEERPIKAAIGERKQTFEDYLEEQIQLEEQELKQKQLKEAEGPLPIKAKPKQPFLKRGEGLARFTNAKSKFQKGKESKLVTNQSTSEDQPLFKMDRQQLQR
- Inhibition of microtubule nucleation/assembly from purified centrosomes (in words) [1]: showed the ability to inhibit microtubule assembly

B3: L353P: PN2-3 polypeptide with L353 mutated to proline (protein, listed as Homo sapiens)
chain: MFLMPTSSELNSGQNFLTQWMTNPSRAGVILNRGFPILEADKEKRAAVDISTSFPIKGTHFSDSFSFINEEDSLLEEQKLESNNPYKPQSDKSETHTAFPCIKKGPQVAACHSAPGHQEENKNDFIPDRASEFKEGAYKDPLFKKLEQLKEVQQKKQEQLKRQQLEQLQRLMEEQEKLLTMVSGQCTLPGLSLLPDDQSQKHRSPGNTTTGERATCCFPSYVYPDPTQEETYPSNILSHEQSNFCRTAHGDFVLTSKRASPNLFSEAQYQEAPVEKNNLKEENRNHPTGESILCWEKVTEQIQEANDKNLQKHDDSSEVANIEERPIKAAIGERKQTFEDYLEEQIQLEEQEPKQKQLKEAEGPLPIKAKPKQPFLKRGEGLARFTNAKSKFQKGKESKLVTNQSTSEDQPLFKMDRQQLQRKTALKNKELCADNPILKKDSKARTKSGSVTLSQKPKMLKCSNRKSLSPSGLKIQTGKKCDGQFRDQIKFENKVTSNNKENVTECPKPCDTGCTGWNKTQGKDRLPLSTGPASRLAAKSPIRETMKESESSLDVSLQKKLETWEREKEKENLELDEFLFLEQAADEISFSSNSSFVLKILERDQQICKGHRMSSTPVKAVPQKTNPADPISHCNRSEDLDHTAREKESECEVAPKQLHSLSSADELREQPCKIRKAVQKSTSENQTEWNARDDEGVPNSDSSTDSEEQLDVTIKPSTEDRERGISSREDSPQVCDDKGPFKDTRTQEDKRRDVDLDLSDKDYSSDESIMESIKHKVSEPSRSSSLSLSKMDFDDERTWTDLEENLCNHDVVLGNESTYGTPQTCYPNNEIGILDKTIKRKIAPVKRGEDLSKSRRSRSPPTSELMMKFFPSLKPKPKSDSHLGNELKLNISQDQPPGDNARSQVLREKIIELETEIEKFKAENASLAKLRIERESALEKLRKEIADFEQQKAKELARIEEFKKEEMRKLQKERKVFEKYTTAARTFPDKKEREEIQTLKQQIADLREDLKRKETKWSSTHSRLRSQIQMLVRENTDLREEIKVMERFRLDAWKRAEAIESSLEVEKKDKLANTSVRFQNSQISSGTQVEKYKKNYLPMQGNPPRRSKSAPPRDLGNLDKGQAASPREPLEPLNFPDPEYKEEEEDQDIQGEISHPDGKVEKVYKNGCRVILFPNGTRKEVSADGKTITVTFFNGDVKQVMPDQRVIYYYAAAQTTHTTYPEGLEVLHFSSGQIEKHYPDGRKEITFPDQTVKNLFPDGQEESIFPDGTIVRVQRDGNKLIEFNNGQRELHTAQFKRREYPDGTVKTVYANGHQETKYRSGRIRVKDKEGNVSMDTEL
- Inhibition of microtubule nucleation/assembly from purified centrosomes (in words) [1]: showed the ability to inhibit microtubule assembly

B4: GFP-CPAP-fl: GFP-tagged full-length CPAP polypeptide, residues 1-1338, expressed from a transfected vector (protein, UniProt Q9HC77 1-1338, looked up)
chain: MFLMPTSSELNSGQNFLTQWMTNPSRAGVILNRGFPILEADKEKRAAVDISTSFPIKGTHFSDSFSFINEEDSLLEEQKLESNNPYKPQSDKSETHTAFPCIKKGPQVAACHSAPGHQEENKNDFIPDLASEFKEGAYKDPLFKKLEQLKEVQQKKQEQLKRQQLEQLQRLMEEQEKLLTMVSGQCTLPGLSLLPDDQSQKHRSPGNTTTGERATCCFPSYVYPDPTQEETYPSNILSHEQSNFCRTAHGDFVLTSKRASPNLFSEAQYQEAPVEKNNLKEENRNHPTGESILCWEKVTEQIQEANDKNLQKHDDSSEVANIEERPIKAAIGERKQTFEDYLEEQIQLEEQELKQKQLKEAEGPLPIKAKPKQPFLKRGEGLARFTNAKSKFQKGKESKLVTNQSTSEDQPLFKMDRQQLQRKTALKNKELCADNPILKKDSKARTKSGSVTLSQKPKMLKCSNRKSLSPSGLKIQTGKKCDGQFRDQIKFENKVTSNNKENVTECPKPCDTGCTGWNKTQGKDRLPLSTGPASRLAAKSPIRETMKESESSLDVSLQKKLETWEREKEKENLELDEFLFLEQAADEISFSSNSSFVLKILERDQQICKGHRMSSTPVKAVPQKTNPADPISHCNRSEDLDHTAREKESECEVAPKQLHSLSSADELREQPCKIRKAVQKSTSENQTEWNARDDEGVPNSDSSTDSEEQLDVTIKPSTEDRERGISSREDSPQVCDDKGPFKDTRTQEDKRRDVDLDLSDKDYSSDESIMESIKHKVSEPSRSSSLSLSKMDFDDERTWTDLEENLCNHDVVLGNESTYGTPQTCYPNNEIGILDKTIKRKIAPVKRGEDLSKSRRSRSPPTSELMMKFFPSLKPKPKSDSHLGNELKLNISQDQPPGDNARSQVLREKIIELETEIEKFKAENASLAKLRIERESALEKLRKEIADFEQQKAKELARIEEFKKEEMRKLQKERKVFEKYTTAARTFPDKKEREEIQTLKQQIADLREDLKRKETKWSSTHSRLRSQIQMLVRENTDLREEIKVMERFRLDAWKRAEAIESSLEVEKKDKLANTSVRFQNSQISSGTQVEKYKKNYLPMQGNPPRRSKSAPPRDLGNLDKGQAASPREPLEPLNFPDPEYKEEEEDQDIQGEISHPDGKVEKVYKNGCRVILFPNGTRKEVSADGKTITVTFFNGDVKQVMPDQRVIYYYAAAQTTHTTYPEGLEVLHFSSGQIEKHYPDGRKEITFPDQTVKNLFPDGQEESIFPDGTIVRVQRDGNKLIEFNNGQRELHTAQFKRREYPDGTVKTVYANGHQETKYRSGRIRVKDKEGNVLMDTEL
modifications: full-length GFP tag
notes: GFP-tagged full-length CPAP polypeptide, residues 1-1338, expressed from a transfected vector
- Inhibition of microtubule reassembly in cold-treated cells (in words) ([2]; transfected HeLa cells expressing lower levels of the construct): no significant inhibition
- Inhibition of microtubule reassembly in cold-treated mitotic cells (in words) [2]: significantly inhibited microtubule reassembly

Results, then the molecule that gave them:

- Effect of synthetic peptide on centrosome-dependent microtubule nucleation (in words) [1]: No effect
Molecule: peptide C1: synthetic peptide, amino acid residues 363-392 of CPAP (SEQ ID NO:1) (GPLPIKAKPKQPFLKRGEGLARFTNAKSKF; listed as Homo sapiens)

- Effect of synthetic peptide on centrosome-dependent microtubule nucleation (in words) [1]: No effect
Molecule: peptide N: synthetic peptide, amino acid residues 310-329 of CPAP (SEQ ID NO:1) (LQKHDDSSEVANIEERPIKA; listed as Homo sapiens)

- Inhibition of microtubule nucleation/assembly from purified centrosomes (in words) [1]: less inhibition
Molecule: GST-PN2-3C: GST fusion with PN2-3C, amino acid residues 369-422 of CPAP (non-helical motif) (AKPKQPFLKRGEGLARFTNAKSKFQKGKESKLVTNQSTSEDQPLFKMDRQQLQR; also: GST tag, terminus not given here; UniProt Q9HC77 369-422, looked up, fragment)

From US7449563B2, “Methods and compositions for destabilizing microtubules” (Academia Sinica, priority 2003, dated 2008)
